Ends that are not written are not given here.
biological target: GST–BIR3 fusion protein (XIAP BIR3 domain); test: FMAT bead-based fluorescence competition assay

Row | Binder | IC50
1 | AIAY-NH2 [Grim 4-mer peptide AIAY (compound 8)] | 340 nM
2 | SVPF-NH2 [SVPF (compound 10)] | 1000 nM
3 | AVPIA-NH2 [Smac 5-mer peptide AVPIA (compound 3)] | 300 nM
4 | AVPIAQ-NH2 [Smac 6-mer peptide AVPIAQ (compound 2)] | 270 nM
5 | AVPIAQK-NH2 [Smac 7-mer peptide AVPIAQK (compound 1)] | 390 nM

Stronger by IC50, values ahead:

Row | IC50 | Binder
6 | 180 nM | ALPF-NH2 [ALPF (compound 15)]
7 | 200 nM | ATPF-NH2 [ATPF (compound 17)]
8 | 80 nM | AIPF-NH2 [AIPF (compound 16)]
